Laboratory results reported in patent publication US20200024358A1 (published 2020).

Assays:
[1] = biological target: T1, recombinant Human BCMA Fc Chimera (produced in-house via transient expression in HEK293-6E cells) (human, UniProt Q02223 1-54); assay: dual-binding ELISA: BCMA Fc coated, then CD3 epsilon His, anti-His detection
T1 construct: not shown: Fc part of the chimera
T1 sequence (looked up): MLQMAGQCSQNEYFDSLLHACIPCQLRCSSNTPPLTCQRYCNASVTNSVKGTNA

[2] = biological target: T2, recombinant human CD3 epsilon His-tag protein (Novoprotein, Cat. No. C578) (human, UniProt P07766 23-126); assay: as above
T2 construct: Bought protein; not shown: His-tag
T2 sequence (P07766 23-126): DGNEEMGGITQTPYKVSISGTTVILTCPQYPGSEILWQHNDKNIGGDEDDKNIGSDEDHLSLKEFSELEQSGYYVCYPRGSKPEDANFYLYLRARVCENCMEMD

[3] = biological target: T1, recombinant Human BCMA Fc Chimera …; assay: dual-binding ELISA: BCMA Fc coated, then CD3 epsilon His or PD-L1 His, anti-His detection
Method: Trispecific antibody molecules were tested for their ability to bind the different targets using a Dual-Binding ELISA. […] Simultaneous binding to antigen pairs was detected via an anti-His antibody (Abcam, Cat. No. ab1187).

[4] = biological target: T3, recombinant human PD-L1 His-tag protein (expressed after transient transfection in HEK293-6E) (human, UniProt Q9NZQ7 19-238, limits assumed); assay: dual-binding ELISA: BCMA Fc coated, then PD-L1 His, anti-His detection
T3 construct: not shown: His-tag
T3 sequence (Q9NZQ7 19-238 limits assumed): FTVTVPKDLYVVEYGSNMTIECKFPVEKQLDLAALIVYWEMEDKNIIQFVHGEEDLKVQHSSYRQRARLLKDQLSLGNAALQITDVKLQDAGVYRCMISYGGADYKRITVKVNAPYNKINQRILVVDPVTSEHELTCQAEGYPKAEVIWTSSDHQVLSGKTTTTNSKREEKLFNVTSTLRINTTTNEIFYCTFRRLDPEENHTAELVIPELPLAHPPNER

[5] = biological target: T4, extracellular domain of human PD-L1 (Example 8) (human, UniProt Q9NZQ7 19-238); assay: competition ELISA in solution (Friguet), Scatchard plot
T4 construct: extracellular domain; also called PD-L1 antigen; immobilized PD-L1
T4 sequence (Q9NZQ7 19-238): as the sequence (Q9NZQ7 19-238 limits assumed) above
Method: First, mixtures of the trispecific antibody (Ab) at a fixed concentration and the PD-L1 antigen (Ag) at varying concentrations were incubated for sufficient time to reach equilibrium. Then the concentration of trispecific antibody, which remained unsaturated at equilibrium (not associated with PD-L1 antigen), was measured by a classical indirect ELISA using PD-L1 coated plates. […] The Kd was calculated from a Scatchard plot using the following equation:

[6] = biological target: T4, extracellular domain of human PD-L1 …; assay: Kinetic Exclusion Assay (KinExA 3200), 1:1 model
Method: (§1) Studies were designed to measure the free antibody in samples with a fixed antibody concentration and different concentrations of antigen PD-L1 at equilibrium, reaction mixtures were performed in PBS (pH 7.4) with 1 mg/ml BSA. […] The equilibrium titration and kinetics data were fit to a 1:1 reversible binding model using KinExA Pro software (version 4.2.10; Sapidyne Instruments) to determine the Kd.

[7] = biological target: T5, Human BCMA labelled with a fluorescent dye (human, UniProt Q02223 1-54, limits assumed, labelled with a fluorescent dye (dye and site not stated)); assay: MicroScale Thermophoresis, labelled BCMA at 2 nM
T5 construct: also called fluorescently labeled BCMA
T5 sequence (looked up): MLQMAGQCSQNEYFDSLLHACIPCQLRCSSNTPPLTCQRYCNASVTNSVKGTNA

[8] = biological target: T4, extracellular domain of human PD-L1 …; assay: Kinetic Exclusion Assay (KinExA 3200)
Method: as §1

B1: CDR1-008 (bispecific antibody)
scFv: DIVLTQSPASLAMSLGKRATISCRASESVSVIGAHLIHWYQQKPGQPPKLLIYLASNLETGVPARFSGSGSGTDFTLTIDPVEEDDVAIYSCLQSRIFPRTFGGGTKLEIKGGGGSGGGGSGGGGSGGGGSQIQLVQSGPELKKPGETVKISCKASGYTFTDYSINWVKRAPGKGLKWMGWINTETREPAYAYDFRGRFAFSLETSASTAYLQINNLKYEDTATYFCALDYSYAMDYWGQGTSVTVSSGGGGSAVVTQEPSLTVSPGGTVTLTCGSSTGAVTTSNYANWVQQKPGKSPRGLIGGTNKRAPGVPARFSGSLLGGKAALTISGAQPEDEADYYCALWYSNHWVFGGGTKLTVLGGGGGSGGGGSGGGGSGGGGSEVQLVESGGGSVQPGGSLRLSCAASGFTFSTYAMNWVRQAPGKGLEWVGRIRSKANNYATYYADSVKGRFTISRDDSKNTLYLQMNSLRAEDTATYYCVRHGNFGDSYVSWFAYWGQGTTVTVSS
notes: also called bispecific tandem scFv BCMA/CD3; scFv BCMA/scFv CD3 BiTE
[1]
  binding result: binds
[2]
  binding result: binds

B2: CDR1-056 (other)
chain: AVVTQEPSLTVSPGGTVTLTCGSSTGAVTTSNYANWVQQKPGKSPRGLIGGTNKRAPGVPARFSGSLLGGKAALTISGAQPEDEADYYCALWYSNHWVFGGGTKLTVLGGGGGSGGGGSGGGGSGGGGSEVQLVESGGGSVQPGGSLRLSCAASGFTFSTYAMNWVRQAPGKGLEWVGRIRSKANNYATYYADSVKGRFTISRDDSKNTLYLQMNSLRAEDTATYYCVRHGNFGDSYVSWFAYWGQGTTVTVSSGGGGSQVQLVESGGGLVQPGGSLRLSCAASGKMSSRRCMAWFRQAPGKGLERVAKLLTTSGSTYLADSVKGRFTISRDNSKNTVYLQMNSLRAEDTAVYYCAADSFEDPTCTLVTSSGAFQYWGQGTLVTVSSGGGGSQVQLVESGGGLVQPGGSLRLSCAASGFTLDYYAIGWFRQAPGKEREGVSCISRSDGSTYYADSVKGRFTISRDNAKNTVYLQMNSLKPEDTAVYYCAAAGADCSGYLRDYEFWGQGTLVTVSS
notes: Trispecific tandem scFv-sdAb-sdAb on one chain; also called CDR-056
[3]
  binding result: binds
[4]
  binding result: binds
[2]
  binding result: binds

B3: CDR1-007 (other)
heavy: QIQLVQSGPELKKPGETVKISCKASGYTFTDYSINWVKRAPGKGLKWMGWINTETREPAYAYDFRGRFAFSLETSASTAYLQINNLKYEDTATYFCALDYSYAMDYWGQGTSVTVSSASTKGPSVFPLAPSSKSTSGGTAALGCLVKDYFPEPVTVSWNSGALTSGVHTFPAVLQSSGLYSLSSVVTVPSSSLGTQTYICNVNHKPSNTKVDKRVEPKSCGGGGSEIVMTQSPSTLSASVGDRVIITCQASEDIYSLLAWYQQKPGKAPKLLIYDASDLASGVPSRFSGSGSGAEFTLTISSLQPDDSATYYCQGNYGSSSSSSYGAVFGQGTKLTVLGGGGGSGGGGSGGGGSGGGGSEVQLVESGGGSVQPGGSLRLSCTVSGIDLSSYTMGWVRQAPGKGLEWVGIISSGGRTYYASWAKGRFTISRDTSKNTVYLQMNSLRAEDTATYYCARGRYTGYPYYFALWGQGTTVTVSS
light: DIVLTQSPASLAMSLGKRATISCRASESVSVIGAHLIHWYQQKPGQPPKLLIYLASNLETGVPARFSGSGSGTDFTLTIDPVEEDDVAIYSCLQSRIFPRTFGGGTKLEIKRTVAAPSVFIFPPSDEQLKSGTASVVCLLNNFYPREAKVQWKVDNALQSGNSQESVTEQDSKDSTYSLSSTLTLSKADYEKHKVYACEVTHQGLSSPVTKSFNRGECGGGGSAVVTQEPSLTVSPGGTVTLTCGSSTGAVTTSNYANWVQQKPGKSPRGLIGGTNKRAPGVPARFSGSLLGGKAALTISGAQPEDEADYYCALWYSNHWVFGGGTKLTVLGGGGGSGGGGSGGGGSGGGGSEVQLVESGGGSVQPGGSLRLSCAASGFTFSTYAMNWVRQAPGKGLEWVGRIRSKANNYATYYADSVKGRFTISRDDSKNTLYLQMNSLRAEDTATYYCVRHGNFGDSYVSWFAYWGQGTTVTVSS
notes: also called CDR-007; trispecific CDR1-007
[5]
  Kd: 0.11 nM
[6]
  Kd: 0.0217 to 0.042 nM
[7]
  Kd: 8.5 to 9.9 nM
[2]
  binding result: binds

B4: CDR1-005 (bispecific antibody)
heavy: QIQLVQSGPELKKPGETVKISCKASGYTFTDYSINWVKRAPGKGLKWMGWINTETREPAYAYDFRGRFAFSLETSASTAYLQINNLKYEDTATYFCALDYSYAMDYWGQGTSVTVSSASTKGPSVFPLAPSSKSTSGGTAALGCLVKDYFPEPVTVSWNSGALTSGVHTFPAVLQSSGLYSLSSVVTVPSSSLGTQTYICNVNHKPSNTKVDKRVEPKSC
light: DIVLTQSPASLAMSLGKRATISCRASESVSVIGAHLIHWYQQKPGQPPKLLIYLASNLETGVPARFSGSGSGTDFTLTIDPVEEDDVAIYSCLQSRIFPRTFGGGTKLEIKRTVAAPSVFIFPPSDEQLKSGTASVVCLLNNFYPREAKVQWKVDNALQSGNSQESVTEQDSKDSTYSLSSTLTLSKADYEKHKVYACEVTHQGLSSPVTKSFNRGECGGGGSAVVTQEPSLTVSPGGTVTLTCGSSTGAVTTSNYANWVQQKPGKSPRGLIGGTNKRAPGVPARFSGSLLGGKAALTISGAQPEDEADYYCALWYSNHWVFGGGTKLTVLGGGGGSGGGGSGGGGSGGGGSEVQLVESGGGSVQPGGSLRLSCAASGFTFSTYAMNWVRQAPGKGLEWVGRIRSKANNYATYYADSVKGRFTISRDDSKNTLYLQMNSLRAEDTATYYCVRHGNFGDSYVSWFAYWGQGTTVTVSS
[1]
  binding result: binds
[2]
  binding result: binds

B5: CDR1-011 (other)
heavy: QIQLVQSGPELKKPGETVKISCKASGYTFTDYSINWVKRAPGKGLKWMGWINTETREPAYAYDFRGRFAFSLETSASTAYLQINNLKYEDTATYFCALDYSYAMDYWGQGTSVTVSSASTKGPSVFPLAPSSKSTSGGTAALGCLVKDYFPEPVTVSWNSGALTSGVHTFPAVLQSSGLYSLSSVVTVPSSSLGTQTYICNVNHKPSNTKVDKRVEPKSCGGGGSEIVMTQSPSTLSASVGDRVIITCQASEDIASLLAWYQQKPGKAPKLLIYDASDLASGVPSRFSGSGSGAEFTLTISSLQPDDSATYYCQGNYGSSSSSSYGAVFGQGTKLTVLGGGGGSGGGGSGGGGSGGGGSEVQLVESGGGSVQPGGSLRLSCTVSGIDLSSYTMGWVRQAPGKGLEWVGIISSGGRTYYASWAKGRFTISRDTSKNTVYLQMNSLRAEDTATYYCARGRYTGYPYYFALWGQGTTVTVSS
light: DIVLTQSPASLAMSLGKRATISCRASESVSVIGAHLIHWYQQKPGQPPKLLIYLASNLETGVPARFSGSGSGTDFTLTIDPVEEDDVAIYSCLQSRIFPRTFGGGTKLEIKRTVAAPSVFIFPPSDEQLKSGTASVVCLLNNFYPREAKVQWKVDNALQSGNSQESVTEQDSKDSTYSLSSTLTLSKADYEKHKVYACEVTHQGLSSPVTKSFNRGECGGGGSAVVTQEPSLTVSPGGTVTLTCGSSTGAVTTSNYANWVQQKPGKSPRGLIGGTNKRAPGVPARFSGSLLGGKAALTISGAQPEDEADYYCALWYSNHWVFGGGTKLTVLGGGGGSGGGGSGGGGSGGGGSEVQLVESGGGSVQPGGSLRLSCAASGFTFSTYAMNWVRQAPGKGLEWVGRIRSKANNYATYYADSVKGRFTISRDDSKNTLYLQMNSLRAEDTATYYCVRHGNFGDSYVSWFAYWGQGTTVTVSS
notes: also called CDR1-0011
[5]
  Kd: 5 nM

B6: CDR1-017 (other)
heavy: QIQLVQSGPELKKPGETVKISCKASGYTFTDYSINWVKRAPGKGLKWMGWINTETREPAYAYDFRGRFAFSLETSASTAYLQINNLKYEDTATYFCALDYSYAMDYWGQGTSVTVSSASTKGPSVFPLAPSSKSTSGGTAALGCLVKDYFPEPVTVSWNSGALTSGVHTFPAVLQSSGLYSLSSVVTVPSSSLGTQTYICNVNHKPSNTKVDKRVEPKSCGGGGSEIVMTQSPSTLSASVGDRVIITCQASEDIYSLLAWYQQKPGKAPKLLIYDASDLASGVPSRFSGSGSGAEFTLTISSLQPDDSATYYCQGNYGSSSSSSYGAVFGQGTKLTVLGGGGGSGGGGSGGGGSGGGGSEVQLVESGGGSVQPGGSLRLSCTVSGIDLSSYTMGWVRQAPGKGLEWVGIISSGGRTYYASWAKGRFTISRDTSKNTVYLQMNSLRAEDTATYYCARGAYTGYPYYFALWGQGTTVTVSS
light: DIVLTQSPASLAMSLGKRATISCRASESVSVIGAHLIHWYQQKPGQPPKLLIYLASNLETGVPARFSGSGSGTDFTLTIDPVEEDDVAIYSCLQSRIFPRTFGGGTKLEIKRTVAAPSVFIFPPSDEQLKSGTASVVCLLNNFYPREAKVQWKVDNALQSGNSQESVTEQDSKDSTYSLSSTLTLSKADYEKHKVYACEVTHQGLSSPVTKSFNRGECGGGGSAVVTQEPSLTVSPGGTVTLTCGSSTGAVTTSNYANWVQQKPGKSPRGLIGGTNKRAPGVPARFSGSLLGGKAALTISGAQPEDEADYYCALWYSNHWVFGGGTKLTVLGGGGGSGGGGSGGGGSGGGGSEVQLVESGGGSVQPGGSLRLSCAASGFTFSTYAMNWVRQAPGKGLEWVGRIRSKANNYATYYADSVKGRFTISRDDSKNTLYLQMNSLRAEDTATYYCVRHGNFGDSYVSWFAYWGQGTTVTVSS
notes: also called trispecific CDR1-017
[5]
  Kd: 26 nM
[8]
  fold difference in affinity against CDR1-007 (WT): ~1000 fold
